The values below come from publication PMC4109720.

One assay deals with myc-JIP1-F336A (human) (UniProt Q9UQF2). The experiment in a line: co-IP.
For another assay, the target named is myc-JIP1-ΔLIR (human) (UniProt Q9UQF2). The experiment in a line: co-IP.

For “GFP-LC3 (from UniProt Q9GZQ8 1-120) (natural protein)”, the percent of the GFP-LC3 binding of wildtype myc-JIP1 (densitometry of co-IP) with myc-JIP1-F336A (human) and in the assay with myc-JIP1-ΔLIR (human) was 20% throughout.
